# Laboratory results as given in IntAct's records for PubMed 24076655.
# B1: E3 ubiquitin-protein ligase ARIH2 (Homo sapiens), O95376 (parent)
# chain: MSVDMNSQGSDSNEEDYDPNCEEEEEEEEDDPGDIEDYYVGVASDVEQQGADAFDPEEYQFTCLTYKESEGALNEHMTSLASVLKVSHSVAKLILVNFHWQVSEILDRYKSNSAQLLVEARVQPNPSKHVPTSHPPHHCAVCMQFVRKENLLSLACQHQFCRSCWEQHCSVLVKDGVGVGVSCMAQDCPLRTPEDFVFPLLPNEELREKYRRYLFRDYVESHYQLQLCPGADCPMVIRVQEPRARRVQCNRCNEVFCFKCRQMYHAPTDCATIRKWLTKCADDSETANYISAHTKDCPKCNICIEKNGGCNHMQCSKCKHDFCWMCLGDWKTHGSEYYECSRYKENPDIVNQSQQAQAREALKKYLFYFERWENHNKSLQLEAQTYQRIHEKIQERVMNNLGTWIDWQYLQNAAKLLAKCRYTLQYTYPYAYYMESGPRKKLFEYQQAQLEAEIENLSWKVERADSYDRGDLENQMHIAEQRRRTLLKDFHDT
# Variants of: B1
# Details: with cul5_human CUL5, Q93034
# Chain of cul5_human CUL5, Q93034 (Q93034 whole entry): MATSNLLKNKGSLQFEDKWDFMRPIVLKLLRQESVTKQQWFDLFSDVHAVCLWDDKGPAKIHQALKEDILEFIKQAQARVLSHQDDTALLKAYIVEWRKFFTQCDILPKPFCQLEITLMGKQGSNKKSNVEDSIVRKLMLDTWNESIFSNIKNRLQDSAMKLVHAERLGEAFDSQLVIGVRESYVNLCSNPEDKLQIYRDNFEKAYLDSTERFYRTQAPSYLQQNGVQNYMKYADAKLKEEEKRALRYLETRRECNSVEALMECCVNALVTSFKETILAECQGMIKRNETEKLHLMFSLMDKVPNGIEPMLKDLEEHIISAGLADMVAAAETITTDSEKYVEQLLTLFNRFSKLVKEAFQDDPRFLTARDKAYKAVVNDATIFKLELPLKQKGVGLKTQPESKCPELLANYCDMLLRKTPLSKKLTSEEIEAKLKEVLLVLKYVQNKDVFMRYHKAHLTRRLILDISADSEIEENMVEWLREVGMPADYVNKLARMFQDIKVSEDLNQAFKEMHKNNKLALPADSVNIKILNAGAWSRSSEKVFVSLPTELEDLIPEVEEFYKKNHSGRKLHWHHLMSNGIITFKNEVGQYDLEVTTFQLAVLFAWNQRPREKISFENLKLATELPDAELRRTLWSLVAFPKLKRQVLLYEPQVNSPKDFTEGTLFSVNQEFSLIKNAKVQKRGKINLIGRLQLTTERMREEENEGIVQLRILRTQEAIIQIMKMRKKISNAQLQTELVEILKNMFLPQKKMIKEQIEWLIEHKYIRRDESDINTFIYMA
row,Variant,effect of a mutation on the interaction
1,L84A;V86A;W100A,decreasing interaction

# Variants of: B1
# Details: with ub2l3_human UBE2L3, P68036
row,Variant,effect of a mutation on the interaction
1,H158A,disrupting interaction

# Variants of: B1
# Details: with cul5_human CUL5, Q93034
# Remark: another data set of the same source
row,Variant,effect of a mutation on the interaction
1,C318A,increasing interaction

# Variants of: B1
# Details: with cul5_human CUL5, Q93034
# Remark: another data set of the same source
row,Variant,effect of a mutation on the interaction
1,C310S,increasing interaction

# Variants of: B1
# Details: with cul5_human CUL5, Q93034
# Remark: another data set of the same source
row,Variant,effect of a mutation on the interaction
1,C310A,increasing interaction

# Variants of: B1
# Details: with cul5_human CUL5, Q93034
# Remark: another data set of the same source
row,Variant,effect of a mutation on the interaction
1,C300A,increasing interaction

# Variants of: B1
# Details: with cul5_human CUL5, Q93034
# Remark: another data set of the same source
row,Variant,effect of a mutation on the interaction
1,W100A,decreasing interaction
